Literature values as cited in PMC3196573.
pKd: −log10 of the molar value.

Assays:
ALK3 (Homo sapiens) = ALK3 (Homo sapiens) (UniProt P36894)
ALK6 (Homo sapiens) = ALK6 (Homo sapiens) (UniProt O00238)
Chain of UniProt O00238 (O00238 14-126): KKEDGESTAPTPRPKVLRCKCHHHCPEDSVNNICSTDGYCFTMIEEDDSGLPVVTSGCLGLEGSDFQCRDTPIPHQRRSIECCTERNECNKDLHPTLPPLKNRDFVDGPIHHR

Chain of UniProt P36894 (P36894 24-152): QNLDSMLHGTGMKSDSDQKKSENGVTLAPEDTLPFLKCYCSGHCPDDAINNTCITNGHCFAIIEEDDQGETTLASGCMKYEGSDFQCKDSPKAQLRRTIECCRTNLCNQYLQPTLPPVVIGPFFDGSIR

- pKd (ALK3 (Homo sapiens)): 9.05
- pKd (ALK6 (Homo sapiens)): 8.44
Substance: BMP2 (from UniProt P12643)
